Source: patent US6077680A (The University of Florida, dated 2000)
Read-outs that look alike come from different tables or passages of the source.

Experiments:
[1] = biological target: Kv1.3 (Mus musculus, UniProt P16390); assay: cell-based; format: cell-based
[2] = tested on: rat brain membrane K channels (primarily Kv1.2); format: binding; conditions: for IC50: read-out: IC50 Rat Brain 125I-CTX
[3] = biological target: Kv1.3 potassium channels in Jurkat T lymphocytes (Homo sapiens, UniProt P22001); format: cell-based
[4] = biological target: rat brain membrane K channels (delayed rectifier, primarily Kv1.2) (rat) (UniProt P63142); assay: 125I-DTX displacement, rat brain membranes
[5] = biological target: rat brain membrane K channels (delayed rectifier, primarily Kv1.2) (rat) (UniProt P63142)
[6] = biological target: rat brain membrane K channels (delayed rectifier, primarily Kv1.2) (rat) (UniProt P63142); remark: listed apart in the source
[7] = biological target: rat brain membrane K channels (delayed rectifier, primarily Kv1.2) (rat) (UniProt P63142); remark: listed apart in the source
[8] = biological target: Kv1.3 potassium channel of human T lymphocytes (human) (UniProt P22001)
[9] = biological target: rat brain membrane K channels (delayed rectifier, primarily Kv1.2) (rat) (UniProt P63142); remark: listed apart in the source
[10] = biological target: cloned Kv1.3 channel, wild type
[11] = biological target: rat brain membrane K channels (delayed rectifier, primarily Kv1.2) (rat) (UniProt P63142); remark: listed apart in the source
[12] = biological target: rat brain membrane K channels (delayed rectifier, primarily Kv1.2) (rat) (UniProt P63142); assay: radioligand displacement, rat brain membranes
[13] = biological target: rat brain membrane K channels (delayed rectifier, primarily Kv1.2) (rat) (UniProt P63142); remark: listed apart in the source
[14] = biological target: IKCa channel of activated human T-cells (human) (UniProt O15554); assay: whole-cell patch clamp block, activated human T-cells
[15] = biological target: Kv1.3 potassium channel of human T lymphocytes (human, UniProt P22001); assay: 125I-ChTX displacement, Jurkat T lymphocytes
[16] = biological target: rat brain membrane K channels (delayed rectifier, primarily Kv1.2) (rat) (UniProt P63142); assay: 125I-dendrotoxin displacement assay

Kv1.3 potassium channels in Jurkat T lymphocytes, sequence (P22001 whole entry): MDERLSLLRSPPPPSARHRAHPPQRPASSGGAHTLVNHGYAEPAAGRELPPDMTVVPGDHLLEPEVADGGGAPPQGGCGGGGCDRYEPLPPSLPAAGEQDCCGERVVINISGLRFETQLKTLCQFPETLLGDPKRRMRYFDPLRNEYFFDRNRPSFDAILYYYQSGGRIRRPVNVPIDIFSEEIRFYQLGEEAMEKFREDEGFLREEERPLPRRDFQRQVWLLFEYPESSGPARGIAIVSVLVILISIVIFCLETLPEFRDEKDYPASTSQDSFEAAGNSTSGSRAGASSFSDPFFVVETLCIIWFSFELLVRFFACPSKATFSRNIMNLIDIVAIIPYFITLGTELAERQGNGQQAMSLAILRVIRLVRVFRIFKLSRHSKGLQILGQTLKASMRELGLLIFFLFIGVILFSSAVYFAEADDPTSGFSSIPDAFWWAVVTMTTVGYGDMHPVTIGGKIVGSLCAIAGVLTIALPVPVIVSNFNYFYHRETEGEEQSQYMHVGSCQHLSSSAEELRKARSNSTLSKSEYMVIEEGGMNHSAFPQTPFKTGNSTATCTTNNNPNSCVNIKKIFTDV
rat brain membrane K channels (delayed rectifier, primarily Kv1.2) (rat), sequence (P63142 whole entry): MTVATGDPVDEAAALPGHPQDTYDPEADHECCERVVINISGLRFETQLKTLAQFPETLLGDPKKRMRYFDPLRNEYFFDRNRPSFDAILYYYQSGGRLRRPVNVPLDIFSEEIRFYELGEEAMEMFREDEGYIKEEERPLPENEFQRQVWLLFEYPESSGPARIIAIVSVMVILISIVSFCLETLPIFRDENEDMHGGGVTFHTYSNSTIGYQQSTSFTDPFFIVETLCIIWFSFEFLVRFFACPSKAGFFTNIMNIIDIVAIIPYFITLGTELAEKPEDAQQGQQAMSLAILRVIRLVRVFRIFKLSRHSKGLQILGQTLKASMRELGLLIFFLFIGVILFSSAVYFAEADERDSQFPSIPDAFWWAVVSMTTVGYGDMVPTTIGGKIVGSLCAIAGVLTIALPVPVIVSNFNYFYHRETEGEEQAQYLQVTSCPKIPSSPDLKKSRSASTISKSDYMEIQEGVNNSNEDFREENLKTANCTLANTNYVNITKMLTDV
Kv1.3, sequence (P16390 whole entry): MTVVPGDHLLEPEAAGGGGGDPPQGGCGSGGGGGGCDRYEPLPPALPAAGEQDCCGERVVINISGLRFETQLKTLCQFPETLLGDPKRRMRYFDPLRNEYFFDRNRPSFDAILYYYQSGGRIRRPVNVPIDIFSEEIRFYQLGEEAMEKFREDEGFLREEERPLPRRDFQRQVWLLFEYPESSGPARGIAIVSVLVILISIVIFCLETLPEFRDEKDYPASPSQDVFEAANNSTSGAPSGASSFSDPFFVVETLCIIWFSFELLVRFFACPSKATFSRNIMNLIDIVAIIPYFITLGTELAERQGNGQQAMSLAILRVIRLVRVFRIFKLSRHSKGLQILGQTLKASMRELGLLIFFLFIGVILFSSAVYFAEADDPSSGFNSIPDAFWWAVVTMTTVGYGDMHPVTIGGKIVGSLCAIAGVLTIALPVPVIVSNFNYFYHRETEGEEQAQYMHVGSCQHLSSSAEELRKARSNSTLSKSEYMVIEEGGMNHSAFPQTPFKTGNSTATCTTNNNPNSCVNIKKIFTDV
Kv1.3 potassium channel of human T lymphocytes (human), sequence (P22001 whole entry): as the sequence (P22001 whole entry) above

## CC[C@H](C)[C@@H]1NC(=O)[C@@H](NC(=O)[C@H](CO)NC(=O)[C@@H](N)CCCNC(=N)N)CSSC[C@@H](C(=O)O)NC(=O)[C@H]([C@@H](C)O)NC(=O)CNC(=O)[C@@H]2CSSC[C@@H]3NC(=O)[C@H](CCC(N)=O)NC(=O)[C@H](Cc4ccccc4)NC(=O)[C@H](C)NC(=O)[C@H]([C@@H](C)O)NC(=O)[C@H](CSSC[C@H](NC(=O)[C@H](Cc4ccccc4)NC(=O)[C@H](CO)NC(=O)[C@H](CC(C)C)NC(=O)[C@H](CCCNC(=N)N)NC(=O)[C@H](Cc4ccc(O)cc4)NC(=O)[C@H](CCCCNC(N)=O)NC(=O)[C@H](CCSC)NC(=O)[C@H](CO)NC(=O)[C@H](Cc4c[nH]cn4)NC(=O)[C@H](CCCCN)NC3=O)C(=O)N[C@@H](CCCNC(=N)N)C(=O)N[C@@H](CCCCN)C(=O)N[C@@H]([C@@H](C)O)C(=O)N2)NC(=O)[C@H](CCCNC(=N)N)NC(=O)[C@H](CO)NC(=O)[C@H](CCCCN)NC(=O)[C@@H]2CCCN2C(=O)[C@H]([C@@H](C)CC)NC(=O)[C@H]([C@@H](C)O)NC(=O)[C@H](CC(=O)O)NC1=O [K22Homocit]
[1]; read-out: Kd
  Kd: > 100 nM

## CC[C@H](C)[C@@H]1NC(=O)[C@@H](NC(=O)[C@H](CO)NC(=O)[C@@H](N)CCCNC(=N)N)CSSC[C@@H](C(=O)O)NC(=O)[C@H]([C@@H](C)O)NC(=O)CNC(=O)[C@@H]2CSSC[C@@H]3NC(=O)[C@H](CCC(N)=O)NC(=O)[C@H](Cc4ccccc4)NC(=O)[C@H](C)NC(=O)[C@H]([C@@H](C)O)NC(=O)[C@H](CSSC[C@H](NC(=O)[C@H](Cc4ccccc4)NC(=O)[C@H](CO)NC(=O)[C@H](CC(C)C)NC(=O)[C@H](CCCNC(=N)N)NC(=O)[C@H](Cc4ccc(O)cc4)NC(=O)[C@H](CCCN)NC(=O)[C@H](CCSC)NC(=O)[C@H](CO)NC(=O)[C@H](Cc4c[nH]cn4)NC(=O)[C@H](CCCCN)NC3=O)C(=O)N[C@@H](CCCNC(=N)N)C(=O)N[C@@H](CCCCN)C(=O)N[C@@H]([C@@H](C)O)C(=O)N2)NC(=O)[C@H](CCCNC(=N)N)NC(=O)[C@H](CO)NC(=O)[C@H](CCCCN)NC(=O)[C@@H]2CCCN2C(=O)[C@H]([C@@H](C)CC)NC(=O)[C@H]([C@@H](C)O)NC(=O)[C@H](CC(=O)O)NC1=O [K22Orn]
[1]
  Kd: 2 ± 1 nM
[2]
  Equipotent Molar Ration (Analog IC50 /ShK IC50) Rat brain: 1.7
  IC50 Ratio: 1.2
  binding affinity for rat brain K channels relative to wild-type ShK toxin, in words: little effect
  reduction of apparent affinity: about 120%
  ΔF: 0.11
  IC50: 20 nM
[3]
  Equipotent Molar Ration (Analog IC50 /ShK IC50) Lymphocyte: 1.2
  reduction of affinity (IC50) for Kv1.3 relative to ShK toxin: only slightly reduced (two times)

## CC[C@H](C)[C@@H]1NC(=O)[C@@H](NC(=O)[C@H](CO)NC(=O)[C@@H](N)CCCNC(=N)N)CSSC[C@@H](C(=O)O)NC(=O)[C@H]([C@@H](C)O)NC(=O)CNC(=O)[C@@H]2CSSC[C@@H]3NC(=O)[C@H](CCC(N)=O)NC(=O)[C@H](Cc4ccccc4)NC(=O)[C@H](C)NC(=O)[C@H]([C@@H](C)O)NC(=O)[C@H](CSSC[C@H](NC(=O)[C@H](Cc4ccccc4)NC(=O)[C@H](CO)NC(=O)[C@H](CC(C)C)NC(=O)[C@H](CCCNC(=N)N)NC(=O)[C@H](Cc4ccc(O)cc4)NC(=O)[C@H](CCCNC(=N)N)NC(=O)[C@H](CCSC)NC(=O)[C@H](CO)NC(=O)[C@H](Cc4c[nH]cn4)NC(=O)[C@H](CCCCN)NC3=O)C(=O)N[C@@H](CCCNC(=N)N)C(=O)N[C@@H](CCCCN)C(=O)N[C@@H]([C@@H](C)O)C(=O)N2)NC(=O)[C@H](CCCNC(=N)N)NC(=O)[C@H](CO)NC(=O)[C@H](CCCCN)NC(=O)[C@@H]2CCCN2C(=O)[C@H]([C@@H](C)CC)NC(=O)[C@H]([C@@H](C)O)NC(=O)[C@H](CC(=O)O)NC1=O [K22R]
[2]
  Equipotent Molar Ration (Analog IC50 /ShK IC50) Rat brain: > 500
  IC50 Ratio: > 500
  ΔF: > 3.65
  IC50: 2000 nM
[3]
  Equipotent Molar Ration (Analog IC50 /ShK IC50) Lymphocyte: 225
  reduction of affinity (IC50) for Kv1.3 relative to ShK toxin: > 225 fold

## CCCC[C@@H]1NC(=O)[C@H](CO)NC(=O)[C@H](Cc2c[nH]cn2)NC(=O)[C@H](CCCCN)NC(=O)[C@@H]2CSSC[C@@H]3NC(=O)[C@H]([C@@H](C)O)NC(=O)[C@H](CCCCN)NC(=O)[C@H](CCCNC(=N)N)NC(=O)[C@H](CSSC[C@H](NC(=O)[C@H](CCCNC(=N)N)NC(=O)[C@H](CO)NC(=O)[C@H](CCCCN)NC(=O)[C@@H]4CCCN4C(=O)[C@H]([C@@H](C)CC)NC(=O)[C@H]([C@@H](C)O)NC(=O)[C@H](CC(=O)O)NC(=O)[C@H]([C@@H](C)CC)NC(=O)[C@@H](NC(=O)[C@H](CO)NC(=O)[C@@H](N)CCCNC(=N)N)CSSC[C@@H](C(=O)O)NC(=O)[C@H]([C@@H](C)O)NC(=O)CNC3=O)C(=O)N[C@@H]([C@@H](C)O)C(=O)N[C@@H](C)C(=O)N[C@@H](Cc3ccccc3)C(=O)N[C@@H](CCC(N)=O)C(=O)N2)NC(=O)[C@H](Cc2ccccc2)NC(=O)[C@H](CO)NC(=O)[C@H](CC(C)C)NC(=O)[C@H](CCCNC(=N)N)NC(=O)[C@H](Cc2ccc(O)cc2)NC(=O)[C@H](CCCCN)NC1=O [M21Nle]
[2]
  Equipotent Molar Ration (Analog IC50 /ShK IC50) Rat brain: 0.8
  effect on binding to either K channel subtype: no significant affect on binding
  IC50: 9 nM
[3]
  Equipotent Molar Ration (Analog IC50 /ShK IC50) Lymphocyte: 0.80

## ShK A15 + A25 (peptide)
[4]
  IC50 ratio (analog IC50/ShK IC50): 2.1
  free energy difference of binding: 0.43 kcal/mol
[5]
  IC50 ratio (analog IC50/ShK IC50): 2.1
  free energy difference of binding: 0.43 kcal/mol

## ShK F27Cha (peptide)
[4]
  IC50 ratio (analog IC50/ShK IC50): 0.7
  free energy difference of binding: -0.21 kcal/mol
[6]
  IC50 ratio (analog IC50/ShK IC50): 0.7
  free energy difference of binding: -0.21 kcal/mol

## ShK K9E (analog 104) (peptide)
[7]
  IC50 ratio (analog IC50/ShK IC50): 3.57

## ShK K9Q (peptide)
[4]
  IC50 ratio (analog IC50/ShK IC50): 0.6
[8]
  equipotent molar ratio (analog IC50/ShK IC50) for block of Kv1.3 current: 9.6
[9]
  IC50: 11 nM

## ShK K22 citrulline (peptide)
[9]
  IC50: 2000 nM

## ShK K22Homocit (peptide)
[10]
  Kd: > 100 nM
[4]
  IC50 ratio (analog IC50/ShK IC50): > 500
[11]
  IC50 ratio (analog IC50/ShK IC50): > 500
  free energy difference of binding: > 3.65 kcal/mol

## ShK K22Nle (peptide)
[4]
  IC50 ratio (analog IC50/ShK IC50): > 250
[8]
  equipotent molar ratio (analog IC50/ShK IC50) for block of Kv1.3 current: > 23
[11]
  IC50 ratio (analog IC50/ShK IC50): > 250
  free energy difference of binding: > 3.23 kcal/mol

## ShK K22Orn (peptide)
[10]
  Kd: 2 nM
[4]
  IC50 ratio (analog IC50/ShK IC50): 1.7
[12]
  reduction of apparent affinity: 120%
[8]
  equipotent molar ratio (analog IC50/ShK IC50) for block of Kv1.3 current: 1.2
[9]
  IC50: 20 nM
[11]
  IC50 ratio (analog IC50/ShK IC50): 1.2
  free energy difference of binding: 0.11 kcal/mol

## ShK M21Nle (peptide)
[4]
  IC50 ratio (analog IC50/ShK IC50): 0.8
[8]
  equipotent molar ratio (analog IC50/ShK IC50) for block of Kv1.3 current: 0.8
[9]
  IC50: 9 nM

## ShK R1S (peptide)
[4]
  IC50 ratio (analog IC50/ShK IC50): 1.5
[8]
  equipotent molar ratio (analog IC50/ShK IC50) for block of Kv1.3 current: 0.92
[9]
  IC50: 16 nM

## ShK Y23Apa (peptide)
[10]
  Kd: 0.12 nM
[4]
  IC50 ratio (analog IC50/ShK IC50): 0.8
[13]
  IC50 ratio (analog IC50/ShK IC50): 0.8
  free energy difference of binding: -0.13 kcal/mol

## ShK Y23Bpa (peptide)
[13]
  IC50 ratio (analog IC50/ShK IC50): 3.76
  free energy difference of binding: 0.78 kcal/mol

## ShK Y23Cha (peptide)
[4]
  IC50 ratio (analog IC50/ShK IC50): 8.8
  free energy difference of binding: 1.27 kcal/mol
[13]
  IC50 ratio (analog IC50/ShK IC50): 8.8
  free energy difference of binding: 1.27 kcal/mol

## ShK Y23Nph (peptide)
[10]
  Kd: 0.2 nM
[4]
  IC50 ratio (analog IC50/ShK IC50): 1
[13]
  IC50 ratio (analog IC50/ShK IC50): 1
  free energy difference of binding: 0 kcal/mol

## ShK desR1-S2 (peptide)
[4]
  IC50 ratio (analog IC50/ShK IC50): 2.5
  free energy difference of binding: 0.54 kcal/mol
[6]
  IC50 ratio (analog IC50/ShK IC50): 2.54
  free energy difference of binding: 0.54 kcal/mol

## ShK-K22DAP (peptide; other documents disagree on this pair)
[14]
  Kd: > 100 nM

## SSCIDTIPKSRCTAFQCKHSMKYRLSFCRKTCGTC [ShK R1S]
[15]
  IC50: 0.05 nM

## RSCIDTIPQSRCTAFQCKHSMKYRLSFCRKTCGTC [ShK K9Q]
[15]
  IC50: 0.31 nM

## KSRCTAFQCKHSXKYRLSFCRKTC (norleucine at position 21; Cys12 and Cys28 S-acetamidomethyl (Acm)) [monocyclic truncated ShK analog of Example 14 (Cys17-Cys32)]
[16]
  IC50 ratio (analog IC50/ShK IC50): > 3000

## KSRCTAFQCKHSXKYRLSFCRKTC (norleucine at position 21) [bicyclic truncated ShK analog of Example 14 (Cys12-Cys28, Cys17-Cys32)]
[16]
  IC50 ratio (analog IC50/ShK IC50): 1360
